B1: Peptide 1 (peptide)
peptide: MAVYVHYHK
modifications: not fully specified; V is N-methyl norvaline (positions 3 and 5); cyclized from the lysine side chain to the N-terminus
B2: Peptide D (peptide)
peptide: MVCVVLYDDK
modifications: not fully specified; N-methyl norvaline at positions 4 and 5 (position 2 is Val, per paragraph 127); cyclized from the lysine side chain to the N-terminus

Tests used:
Assay in all cases: cell-based or functional assay
[1] = target: Her-2 (Human epithelial growth factor 2) on SKBR-3 cells (human) (UniProt P04626)
[2] = target: T1, Her-2 (Human epithelial growth factor 2) on SKBR-3 cells (human, UniProt P04626 23-1255)
[3] = target: T1, Her-2 (Human epithelial growth factor …); remark: listed apart in the source

Molecule	IC50, inhibition of proliferation of Her-2 positive cells (SKBR-3), BrdU incorporation [1]	fold improvement of EC50 over HRAP, BrdU cell proliferation assay [2]	IC50, inhibition of proliferation of Her-2 positive cells (SKBR-3), BrdU incorporation [3]	fold enhancement of EC50 over ANHP, BrdU cell proliferation assay [2]
AHNP (peptide)	67000 nM	–	–	–
B1	–	~450 fold	520 nM	–
B2	–	–	640 nM	~110 fold

Source: US20150050211A1 (UNIVERSITY OF SOUTHERN CALIFORNIA, published 2015)
